Data taken from patent US20230212267A1.

Target: SARS-CoV-2 Spike protein on pseudovirus (wild type) (SARS-CoV-2) (UniProt P0DTC2)
Test: cell-based or functional assay

For “ACE2-Ig (positive control of the pseudovirus neutralization assay) (Fc fusion)”, the IC50, pseudovirus neutralization was 0.9 µg/mL.
